Reference: publication PMC12329711, “(Reverse) Evolution of a Promiscuous Isochorismate Pyruvate Lyase into an Efficient Chorismate Mutase” (Biochemistry, 2025)

Assays:
Assay in all cases: purified protein
Settings in all cases: pH 7.5; 30.0 °C
[1] = tested on: C=C(O[C@@H]1C=C(C(=O)O)C=C[C@H]1O)C(=O)O; assay type: biochemical, Escherichia coli
[2] = tested on: C=C(O[C@@H]1C=C(C(=O)O)C=C[C@H]1O)C(=O)O
[3] = tested on: C=C(O[C@H]1C=CC=C(C(=O)O)[C@@H]1O)C(=O)O

Substance	Km [1] [µM]	Km [2] [µM]	Km [3] [µM]	kcat/Km [3] [M⁻¹ s⁻¹]
(Escherichia coli K-12)	240			
(Mycobacterium tuberculosis H37Rv)		170 ± 16	200 ± 30	4.4 ± 0.4
(Pseudomonas aeruginosa PAO1)		41 ± 5		
